T1: IQGAP2^C795 (C-terminal fragment of IQGAP2) (human, UniProt Q13576 780-1575)
T1 construct: IQGAP2, aa 780-1575; also called IQGAP2^C975
T1 sequence (looked up): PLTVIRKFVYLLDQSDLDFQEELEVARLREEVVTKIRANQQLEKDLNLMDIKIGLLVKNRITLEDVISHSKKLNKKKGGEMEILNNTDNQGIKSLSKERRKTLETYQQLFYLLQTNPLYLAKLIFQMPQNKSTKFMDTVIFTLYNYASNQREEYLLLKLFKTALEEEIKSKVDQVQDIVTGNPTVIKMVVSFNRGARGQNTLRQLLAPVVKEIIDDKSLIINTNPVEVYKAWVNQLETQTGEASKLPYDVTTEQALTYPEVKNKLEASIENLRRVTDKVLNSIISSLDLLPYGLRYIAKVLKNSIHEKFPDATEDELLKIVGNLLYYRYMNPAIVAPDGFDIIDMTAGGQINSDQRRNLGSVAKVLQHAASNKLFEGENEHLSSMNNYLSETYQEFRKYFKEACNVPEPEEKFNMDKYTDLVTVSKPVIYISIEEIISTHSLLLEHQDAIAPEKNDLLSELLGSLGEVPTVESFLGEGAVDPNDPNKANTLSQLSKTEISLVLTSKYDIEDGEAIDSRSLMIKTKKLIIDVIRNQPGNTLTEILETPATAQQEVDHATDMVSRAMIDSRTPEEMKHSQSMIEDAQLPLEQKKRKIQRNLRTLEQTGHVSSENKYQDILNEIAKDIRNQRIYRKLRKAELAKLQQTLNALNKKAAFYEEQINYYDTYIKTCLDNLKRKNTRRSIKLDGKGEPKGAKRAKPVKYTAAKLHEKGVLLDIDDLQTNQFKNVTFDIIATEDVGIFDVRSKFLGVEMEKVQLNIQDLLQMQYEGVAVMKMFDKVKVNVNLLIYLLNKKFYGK

T2: IQGAP1^C794 (C-terminal half of human IQGAP1 with the GRD, RGCT and CT domains) (human, UniProt P46940 863-1657)
T2 sequence (looked up): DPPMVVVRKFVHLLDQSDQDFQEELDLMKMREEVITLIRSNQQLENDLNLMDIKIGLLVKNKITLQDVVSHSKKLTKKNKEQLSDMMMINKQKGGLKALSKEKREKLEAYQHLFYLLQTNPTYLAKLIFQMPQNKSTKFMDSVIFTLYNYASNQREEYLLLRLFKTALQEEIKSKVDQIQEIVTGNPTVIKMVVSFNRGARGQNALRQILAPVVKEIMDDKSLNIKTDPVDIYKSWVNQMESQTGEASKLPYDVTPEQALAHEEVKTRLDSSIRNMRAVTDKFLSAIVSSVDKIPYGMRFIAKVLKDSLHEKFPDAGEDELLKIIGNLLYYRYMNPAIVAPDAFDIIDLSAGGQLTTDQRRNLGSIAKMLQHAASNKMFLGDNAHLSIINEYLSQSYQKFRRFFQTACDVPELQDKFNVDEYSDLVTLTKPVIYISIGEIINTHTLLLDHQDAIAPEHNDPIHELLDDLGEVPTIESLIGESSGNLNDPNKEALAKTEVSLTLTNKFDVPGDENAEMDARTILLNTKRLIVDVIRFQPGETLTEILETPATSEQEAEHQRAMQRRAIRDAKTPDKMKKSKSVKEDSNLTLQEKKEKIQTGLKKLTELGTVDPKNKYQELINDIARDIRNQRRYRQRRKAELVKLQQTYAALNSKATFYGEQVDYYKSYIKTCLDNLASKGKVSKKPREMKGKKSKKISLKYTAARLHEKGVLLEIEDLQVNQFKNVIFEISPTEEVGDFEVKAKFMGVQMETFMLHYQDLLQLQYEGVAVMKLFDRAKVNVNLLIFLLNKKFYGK


How the values were obtained:
Conditions in all cases: both partners purified
[1] = biological target: T1, IQGAP2^C795 (C-terminal fragment of …); assay: stopped-flow fluorescence spectrometry; association (kobs): 2 µM IQGAP1^C794 or IQGAP2^C795 mixed with 0.2 µM mGppNHp-bound RHO GTPase; 30 mM Tris-HCl pH 7.5, 10 mM K2HPO4/KH2PO4 pH 7.4, 2 mM MgCl2, 3 mM DTT, 25 °C
[2] = biological target: T2, IQGAP1^C794 (C-terminal half of human …); assay: stopped-flow fluorescence spectrometry; kon from 0.2 µM mGppNHp-bound RHO GTPase with 2-8 µM IQGAP1^C794; koff by displacing with 10 µM unlabeled RAC1-GppNHp from 2 µM IQGAP1^C794 with 0.2 µM GTPase; Kd calculated from the rate constants; 25 °C
[3] = biological target: CDC42^Q61L•GppNHp (human, UniProt P60953 1-178, Q61L); assay: SEC; analytical SEC of IQGAP1 GRD with CDC42^Q61L•GppNHp or CDC42^WT•GppNHp
Chain of CDC42^Q61L•GppNHp (P60953 1-178 Q61L): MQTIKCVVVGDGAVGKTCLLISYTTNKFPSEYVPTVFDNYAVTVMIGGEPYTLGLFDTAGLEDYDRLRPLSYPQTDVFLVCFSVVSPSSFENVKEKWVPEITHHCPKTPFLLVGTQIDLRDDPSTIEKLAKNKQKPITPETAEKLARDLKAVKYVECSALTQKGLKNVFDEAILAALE

[4] = biological target: CDC42 (aa 1-178) (human, UniProt P60953 1-178); assay: as above
Chain of CDC42 (aa 1-178) (P60953 1-178): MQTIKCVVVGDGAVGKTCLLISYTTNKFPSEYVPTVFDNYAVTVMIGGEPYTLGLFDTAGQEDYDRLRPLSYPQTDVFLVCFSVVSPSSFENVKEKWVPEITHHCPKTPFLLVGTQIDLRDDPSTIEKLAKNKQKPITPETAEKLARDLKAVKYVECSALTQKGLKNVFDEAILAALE

[5] = biological target: RAC1 (aa 1-179) (human, UniProt P63000 1-179); assay: stopped-flow fluorescence spectrometry; competition: 4 µM IQGAP1^C794 premixed with 40 µM RAC-binding protein (10-fold molar excess), mixed 1:1 with 0.4 µM RAC1•mGppNHp; 25 °C

binding result [2]	binding result [5]	Binder	also measured
binds	–	RHOG (aa 1-178) (natural protein) not shown	binding result [1]: binds
binds	–	RHOA-to-RAC1 variant (RHOA K27T, D28N, E47M, E54N, D76Q) (natural protein) not shown	–
–	–	IQGAP1^GRD (RASGAP-related domain of IQGAP1) (domain or fragment, human, UniProt P46940 962-1345, looked up) SKEKREKLEAYQHLFYLLQTNPTYLAKLIFQMPQNKSTKFMDSVIFTLYNYASNQREEYLLLRLFKTALQEEIKSKVDQIQEIVTGNPTVIKMVVSFNRGARGQNALRQILAPVVKEIMDDKSLNIKTDPVDIYKSWVNQMESQTGEASKLPYDVTPEQALAHEEVKTRLDSSIRNMRAVTDKFLSAIVSSVDKIPYGMRFIAKVLKDSLHEKFPDAGEDELLKIIGNLLYYRYMNPAIVAPDAFDIIDLSAGGQLTTDQRRNLGSIAKMLQHAASNKMFLGDNAHLSIINEYLSQSYQKFRRFFQTACDVPELQDKFNVDEYSDLVTLTKPVIYISIGEIINTHTLLLDHQDAIAPEHNDPIHELLDDLGEVPTIESLIGESS	stoichiometry N [3]: 2 CDC42^Q61L per GRD (printed as 2:1; order taken from p-0007); stoichiometry N [4]: 1 GRD per CDC42 (printed as 2:2)
–	binds	PAK1 GBD (GTPase-binding domain of PAK1) (domain or fragment) SILPGDKTNKKKEKERPEISLPSDFEHTIHVGFDAVTGEFTGMPEQWARLLQTSNITKSEQKKNPQAVLDVLEFYNSKKTSNSQK	–
–	binds	DOCK2 DHR2 (DOCK homology region 2 domain of DOCK2) (domain or fragment, human DOCK2 DHR2 domain, aa 1211-1624; also called DOCK DHR2; source: pOPIN vector, purified; the methods say all proteins except IQGAP2^C795 were isolated as GST fusions with GST cleaved) YKDNNREEMYIRYLYKLRDLHLDCDNYTEAAYTLLLHTWLLKWSDEQCASQVMQTGQQHPQTHRQLKETLYETIIGYFDKGKMWEEAISLCKELAEQYEMEIFDYELLSQNLIQQAKFYESIMKILRPKPDYFAVGYYGQGFPSFLRNKVFIYRGKEYERREDFQMQLMTQFPNAEKMNTTSAPGDDVKNAPGQYIQCFTVQPVLDEHPRFKNKPVPDQIINFYKSNYVQRFHYSRPVRRGTVDPENEFASMWIERTSFVTAYKLPGILRWFEVVHMSQTTISPLENAIETMSTANEKILMMINQYQSDETLPINPLSMLLNGIVDPAVMGGFAKYEKAFFTEEYVRDHPEDQDKLTHLKDLIAWQIPFLGAGIKIHEKRVSDNLRPFHDRMEECFKNLKMKVEKEYGVREMPD	–
binds	–	CDC42 Q74D (natural protein) not shown	–
binds	–	CDC42 V85D/S88D (natural protein) not shown	–
–	binds	p50^GAP (GAP domain) (domain or fragment) HVKLEQLGIPRQVLKYDDFLKSTQKSPATAPKPMPPRPPLPNQQFGVSLQHLQEKNPEQEPIPIVLRETVAYLQAHALTTEGIFRRSANTQVVREVQQKYNMGLPVDFDQYNELHLPAVILKTFLRELPEPLLTFDLYPHVVGFLNIDESQRVPATLQVLQTLPEENYQVLRFLTAFLVQISAHSDQNKMTNTNLAVVFGPNLLWAKDAAITLKAINPINTFTKFLLDHQGELFPSPDPSGL	–
binds	–	CDC42 T25K/N26D (natural protein) not shown	–

Reference: article PMC8625570, “Selectivity Determinants of RHO GTPase Binding to IQGAPs” (International Journal of Molecular Sciences, 2021)
